Target: Serum Resistance-Associated protein with C-terminal S tag
Test: pull-down (sup/bound fractions, western blot with α-S tag), quantified
Conditions: read off a plot

Apolipoprotein L-I, wild type, with C-terminal V5-His6 tag (from UniProt O14791-1) N386T; N387K; N388I; Y389Q
percent of parent (parent: est. 100): 5.5 % binding

apoL1 truncated mutant NNNY (9 C-terminal amino acids removed, human last four residues NNNY), C-terminal V5-His6 tag (from UniProt O14791-1) N386T; N387K; N388I; Y389Q
response (parent: est. 9): 9.5 % binding

— paper PMC2778949
